Measurements as given in PMC7655094.
Where “and” joins values, the source holds several entries; their conditions need not be identical. Equal values may be shown once.

Target: CD16 expressed by Jurkat-CD16 cells (UniProt P08637)
Test: flow cytometry on cells

UniProt P08637, sequence (P08637 17-254): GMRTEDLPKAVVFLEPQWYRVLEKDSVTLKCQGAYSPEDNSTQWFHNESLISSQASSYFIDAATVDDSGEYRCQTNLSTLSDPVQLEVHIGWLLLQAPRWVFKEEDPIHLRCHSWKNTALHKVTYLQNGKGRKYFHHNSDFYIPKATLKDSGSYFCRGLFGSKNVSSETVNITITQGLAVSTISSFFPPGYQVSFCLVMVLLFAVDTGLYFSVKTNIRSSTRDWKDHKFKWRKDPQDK

## goat-produced cetuximab (gCetuximab) (antibody)
  MFI of bound competitor anti-CD16-PE/3G8: 25.1 and 28.1 and 21.8
